Measurements: US10654939 (BEIJING MABWORKS BIOTECH, dated 2020)
Substitutions are numbered along the chain they refer to. Where two headings read alike, the source gives them in different places.

T1: rhesus CD40 expressed on HEK293A cells (rhesus monkey, UniProt P25942 21-277 (human entry))
T1 construct: also called HEK293A/rhesusCD40
T1 chain: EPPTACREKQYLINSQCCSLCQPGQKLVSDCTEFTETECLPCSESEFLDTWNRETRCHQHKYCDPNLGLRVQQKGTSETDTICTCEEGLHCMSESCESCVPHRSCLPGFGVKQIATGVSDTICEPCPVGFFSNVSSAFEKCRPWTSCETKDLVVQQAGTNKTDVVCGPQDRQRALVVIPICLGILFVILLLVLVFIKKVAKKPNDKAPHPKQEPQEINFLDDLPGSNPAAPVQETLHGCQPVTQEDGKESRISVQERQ

B1: 13A2-VH3VL2 (antibody, human IgG2, kappa, V domains shown)
VH: QVQLQESGPGLVKPSDTLSLTCAVSGYSITTNYYWNWIRQPPGNKLEWMGYINYDGSNNYNPSLKNRITISVDTSKNQFSLKLSSVTAVDTAVYYCARLDYWGQGTLVTVSS
VL: DVVLTQSPLSLPVTLGQPASISCRSSQSLENSNGNTFLNWFQQRPGQSPRLLIYKVSNRFSGVPDRFSGSGSGTDFTLKISRVEAEDVGVYYCLQVTHVPFTFGQGTKLEIKR
notes: Humanized, human IgG2/kappa
B2: 7B4-VH2VL2 (antibody, V domains shown)
VH: B1 VH with N44K, K45G, N53K
VL: B1 VL
notes: Humanized, human IgG2/kappa; also called 7B4H2L2
B3: 13A2-VH3VL3 (antibody, human IgG2, kappa, V domains shown)
VH: B1 VH
VL: B1 VL with Y92F, Q105S
notes: Humanized, human IgG2/kappa
B4: chimeric 13A2 antibody (antibody, human IgG2, kappa, V domains shown)
VH: EVKLEQSGPGLVKPSQSLSLTCSVTGYSITTNYYWNWIRQFPGNKLEWMGYINYDGSNNYNPSLKNRISITRDTSKNQFFLKLNSVTTEDTATYYCARLDYWGQGTSVTVSS
VL: DIVMTQSPLSLPVSLGDQASISCRSSQSLENSNGNTFLNWFLQKPGQSPQLLIYKVSNRFSGVLDRFSGTGSGTDFTLTISRVEAEDLGVYFCLQVTHVPFTFGSGTKLEIKR
notes: Mouse variable regions with human IgG2/kappa constant regions

Tests used:
[1] = biological target: T2, recombinant human CD40 (ECD)-his (human, UniProt P25942 21-193); assay: SPR (Biacore 8K), hCD40(ECD)-his coupled to chip, antibody injected
T2 construct: Bought protein; also called hCD40(ECD)-his; TNFRSF5
Description: SPR assays were used to determine the binding affinity of the chimetic or humanized anti-CD40 antibodies to human CD40 with the BIAcore™ 8K instrument (GE Life Sciences). Briefly, 100-200 response units (RU) of human CD40 (ECD)-his protein (Sino Biological, CN, Cat #: 10774-H08H) were coupled to CM5 biosensor chips (Cat #: BR-1005-30, GE Life Sciences), followed by blocking of un-reacted groups with 1M ethanolamine. Serially diluted antibodies at concentrations ranging from […] were injected into the SPR running buffer (HBS-EP buffer, pH7.4, GE Life Sciences; US; Cat #: BR-1006-69) at 30 μL/minute. The binding capacity was calculated with the RUs of blank controls subtracted. The association rate (k_a) and dissociation rate (k_d) were calculated using the one-to-one Langmuir binding model (BIA Evaluation Software, GE Life Sciences). The equilibrium dissociation constant K_D was calculated as the k_d/k_a ratio.

[2] = biological target: T1, rhesus CD40 expressed on HEK293A cells; assay: FACS on HEK293A/rhesus CD40 cells, serially diluted antibody (Example 14, protocol of Example 5)
Description: Example 5 Mouse Anti-CD40 Monoclonal Antibodies Bound to Human and Rhesus CD40 Expressed on HEK293A Cells To further determine whether anti-CD40 antibodies bound to human, monkey or mouse CD40 expressed on HEK293A cells, a cell-based binding assay by FACS was performed using the HEK293A cells stably overexpressing human, monkey or mouse CD40 as generated in Example 1, respectively. Briefly, 10^5 HEK293A cells were seeded into each well of the 96-well plates and serially diluted anti-CD40 antibodies were added to the plates. After incubated at 4° C. for 1 hour, plates were washed 3 times with PBST. Then, an APC coupled Goat Anti-Mouse IgG (BioLegen, US, Cat #: 405308) diluted 500× was added to the plates. After incubation at 4° C. for 1 hour, the plates were washed with PBS for 3 times and then cell fluorescence was monitored using a FACS machine (BD).
The chimeric and humanized anti-CD40 antibodies were further characterized for their ability of binding to HEK293A/humanCD40 cells and HEK293A/rhesus CD40 cells, following the protocols described in Example 5. They were also tested for their ability to activate CD40 signaling in HEK-Blue assay, and to promote dendritic cell maturation, following the protocols in Example 7 and Example 9, respectively, the dendritic cells collected form three healthy human donors. IL-12(p40) secretion by the dendritic cells was measured by using human IL12(p40) ELISA kit (BD, US, Cat #: 551116) following themanufactor's instruction.

[3] = biological target: T3, CD40 ECD Truncant 3 (amino acid 145-193) with mFc-tag (human); assay: ELISA on recombinant CD40 ECD proteins with mFc tag (Example 16); antibody concentration not given
T3 construct: mFc-tag at the C terminus; also called CRD4

[4] = biological target: T4, CD40 ECD Truncant 4 (amino acid 38-193) with mFc-tag (human); assay: as above
T4 construct: Truncated CRD1; mFc-tag at the C terminus; also called CRD delta1/2/3/4

[5] = biological target: T5, CD40 ECD Truncant 2 (amino acid 104-193) with mFc-tag (human); assay: as above
T5 construct: mFc-tag at the C terminus; also called CRD3/4

[6] = biological target: Full-length CD40 ECD (amino acid 21-193, human CD40) with mFc-tag (human); assay: as above
[7] = biological target: T6, CD40 ECD Truncant 1 (amino acid 61-193) with mFc-tag (human); assay: as above
T6 construct: mFc-tag at the C terminus; also called CRD2/3/4

[8] = biological target: T7, CD40 ECD Truncant 5 (amino acid 21-37 & 61-193) with mFc-tag (human); assay: as above
T7 construct: Truncated CRD1; mFc-tag at the C terminus; also called CRD delta1/2/3/4

[9] = biological target: T8, CD40 ECD Mutant 1 (amino acid 21-193, R7A/E8A) with mFc-tag (human); assay: as above
T8 construct: Signal peptide left out

[10] = biological target: T2, recombinant human CD40 (ECD)-his; assay: ELISA on coated recombinant TNFRSF proteins, serially diluted antibody (Example 17)
[11] = biological target: T2, recombinant human CD40 (ECD)-his; assay: as above; remark: listed apart in the source
[12] = biological target: T9, mouse CD40 expressed on HEK293A cells (mouse, UniProt P27512 20-289); assay: FACS, HEK293A/mouseCD40 cells
T9 construct: also called HEK293A/mouseCD40
T9 sequence (P27512 20-289 limits assumed): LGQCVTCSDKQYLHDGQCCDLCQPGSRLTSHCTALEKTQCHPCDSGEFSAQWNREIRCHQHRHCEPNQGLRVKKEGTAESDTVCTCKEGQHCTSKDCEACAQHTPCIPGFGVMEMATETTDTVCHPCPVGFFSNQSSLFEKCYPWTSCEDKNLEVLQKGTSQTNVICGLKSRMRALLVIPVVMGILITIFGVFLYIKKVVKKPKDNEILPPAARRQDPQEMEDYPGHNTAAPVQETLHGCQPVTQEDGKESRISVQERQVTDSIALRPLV

T8 sequence (chain, as listed by the source limits assumed, stated change not applied): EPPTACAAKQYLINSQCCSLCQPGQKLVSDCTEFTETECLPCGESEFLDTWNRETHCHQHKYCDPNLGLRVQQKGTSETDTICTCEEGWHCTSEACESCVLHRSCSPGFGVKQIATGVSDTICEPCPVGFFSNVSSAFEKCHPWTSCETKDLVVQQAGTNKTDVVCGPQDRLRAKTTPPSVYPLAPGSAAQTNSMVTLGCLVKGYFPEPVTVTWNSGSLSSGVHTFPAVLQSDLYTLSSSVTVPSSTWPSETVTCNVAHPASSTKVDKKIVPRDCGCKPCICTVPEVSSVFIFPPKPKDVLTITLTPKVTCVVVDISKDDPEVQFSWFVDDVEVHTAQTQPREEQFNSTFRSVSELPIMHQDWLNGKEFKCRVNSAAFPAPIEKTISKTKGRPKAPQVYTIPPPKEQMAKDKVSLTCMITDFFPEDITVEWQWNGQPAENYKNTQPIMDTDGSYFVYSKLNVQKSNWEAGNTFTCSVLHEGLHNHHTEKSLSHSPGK
T3 sequence (chain, as listed by the source limits assumed): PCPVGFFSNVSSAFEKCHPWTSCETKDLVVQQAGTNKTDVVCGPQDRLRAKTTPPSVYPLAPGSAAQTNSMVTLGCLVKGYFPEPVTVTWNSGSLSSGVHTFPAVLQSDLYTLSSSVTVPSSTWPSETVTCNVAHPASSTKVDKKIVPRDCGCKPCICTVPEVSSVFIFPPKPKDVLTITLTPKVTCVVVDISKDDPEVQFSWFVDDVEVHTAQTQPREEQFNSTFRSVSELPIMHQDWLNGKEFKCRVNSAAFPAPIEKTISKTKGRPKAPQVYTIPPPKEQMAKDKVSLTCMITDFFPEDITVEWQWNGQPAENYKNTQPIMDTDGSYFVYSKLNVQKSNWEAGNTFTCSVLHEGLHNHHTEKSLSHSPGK
T4 sequence (chain, as listed by the source limits assumed): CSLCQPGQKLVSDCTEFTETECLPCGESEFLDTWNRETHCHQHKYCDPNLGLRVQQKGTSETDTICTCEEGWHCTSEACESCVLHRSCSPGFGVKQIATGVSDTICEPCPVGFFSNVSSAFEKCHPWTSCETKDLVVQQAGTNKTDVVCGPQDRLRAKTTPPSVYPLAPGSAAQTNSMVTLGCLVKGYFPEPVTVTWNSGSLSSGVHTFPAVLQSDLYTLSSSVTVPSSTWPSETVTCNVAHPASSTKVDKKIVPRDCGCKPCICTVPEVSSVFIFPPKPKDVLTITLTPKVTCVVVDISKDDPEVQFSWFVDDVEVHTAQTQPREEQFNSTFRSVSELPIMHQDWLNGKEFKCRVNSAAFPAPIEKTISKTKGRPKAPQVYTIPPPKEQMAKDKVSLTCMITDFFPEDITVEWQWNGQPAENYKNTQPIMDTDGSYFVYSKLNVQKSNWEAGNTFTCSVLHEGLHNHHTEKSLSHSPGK
T7 sequence (chain, as listed by the source limits assumed): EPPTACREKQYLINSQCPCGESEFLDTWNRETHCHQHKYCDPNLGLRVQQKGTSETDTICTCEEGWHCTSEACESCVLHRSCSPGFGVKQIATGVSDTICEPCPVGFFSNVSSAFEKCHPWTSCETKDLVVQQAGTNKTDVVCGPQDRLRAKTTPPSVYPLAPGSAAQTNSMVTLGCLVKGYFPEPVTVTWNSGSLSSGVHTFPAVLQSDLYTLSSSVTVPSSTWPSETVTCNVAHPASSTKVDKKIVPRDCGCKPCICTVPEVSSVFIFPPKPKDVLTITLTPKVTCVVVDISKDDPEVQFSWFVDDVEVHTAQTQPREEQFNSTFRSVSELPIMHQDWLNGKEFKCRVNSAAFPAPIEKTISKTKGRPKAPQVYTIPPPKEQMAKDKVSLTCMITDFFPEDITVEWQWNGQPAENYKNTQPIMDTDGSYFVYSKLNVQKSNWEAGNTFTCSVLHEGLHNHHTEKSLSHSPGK
T5 sequence (chain, as listed by the source limits assumed): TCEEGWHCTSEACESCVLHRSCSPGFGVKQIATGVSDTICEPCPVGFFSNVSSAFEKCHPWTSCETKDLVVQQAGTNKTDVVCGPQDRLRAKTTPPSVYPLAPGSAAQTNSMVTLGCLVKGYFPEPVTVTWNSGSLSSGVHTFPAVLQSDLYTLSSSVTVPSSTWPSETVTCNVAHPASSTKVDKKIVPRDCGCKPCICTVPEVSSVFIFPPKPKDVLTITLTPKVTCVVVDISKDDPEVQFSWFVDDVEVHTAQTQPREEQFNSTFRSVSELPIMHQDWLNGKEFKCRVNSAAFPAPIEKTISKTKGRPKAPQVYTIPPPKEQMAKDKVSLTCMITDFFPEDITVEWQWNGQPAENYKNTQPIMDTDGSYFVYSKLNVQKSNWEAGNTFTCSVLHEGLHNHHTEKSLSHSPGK
T6 sequence (chain, as listed by the source limits assumed): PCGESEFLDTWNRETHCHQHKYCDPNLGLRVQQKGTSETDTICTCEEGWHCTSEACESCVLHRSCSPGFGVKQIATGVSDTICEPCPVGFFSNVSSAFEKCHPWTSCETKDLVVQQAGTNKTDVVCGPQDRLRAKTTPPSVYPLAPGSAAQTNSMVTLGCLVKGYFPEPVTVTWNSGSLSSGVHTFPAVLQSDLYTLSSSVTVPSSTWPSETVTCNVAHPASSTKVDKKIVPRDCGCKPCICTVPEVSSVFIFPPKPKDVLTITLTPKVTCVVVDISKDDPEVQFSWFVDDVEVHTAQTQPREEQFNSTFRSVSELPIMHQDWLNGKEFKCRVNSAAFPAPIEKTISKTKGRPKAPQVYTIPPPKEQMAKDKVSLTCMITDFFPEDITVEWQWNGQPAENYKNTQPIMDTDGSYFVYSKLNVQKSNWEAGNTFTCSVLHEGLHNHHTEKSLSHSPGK

Binder	Kd [1]	koff [1]	kon [1]	binding result [2]	binding result [3]	binding result [4]	binding result [5]	binding result [6]	binding result [7]	binding result [8]	binding result [9]	EC50 (read off the curve) [2]	EC50 (read off the curve) [10]	EC50 (read off the curve) [11]	binding result [12]
B1	2.93 nM	0.00242 s⁻¹	825000 M⁻¹ s⁻¹	binds	no binding	no binding	no binding	binds	no binding	no binding	binds				
B2	2.91 nM	0.00581 s⁻¹	2e+06 M⁻¹ s⁻¹									~0.2 µg/mL	~0.02 µg/mL		
B3	7.68 nM	0.00459 s⁻¹	598000 M⁻¹ s⁻¹	binds	no binding	no binding	no binding	binds	no binding	no binding	binds			~0.02 µg/mL	
B4	3.58 nM	0.00173 s⁻¹	484000 M⁻¹ s⁻¹		no binding	no binding	no binding	binds	no binding	no binding	binds				no binding
